Experimental data: article doi:10.1101/2021.02.24.432656 (bioRxiv, 2021)

Target: T1, bacterially purified STAT1 recombinant protein (human, UniProt P42224 1-750)
T1 sequence: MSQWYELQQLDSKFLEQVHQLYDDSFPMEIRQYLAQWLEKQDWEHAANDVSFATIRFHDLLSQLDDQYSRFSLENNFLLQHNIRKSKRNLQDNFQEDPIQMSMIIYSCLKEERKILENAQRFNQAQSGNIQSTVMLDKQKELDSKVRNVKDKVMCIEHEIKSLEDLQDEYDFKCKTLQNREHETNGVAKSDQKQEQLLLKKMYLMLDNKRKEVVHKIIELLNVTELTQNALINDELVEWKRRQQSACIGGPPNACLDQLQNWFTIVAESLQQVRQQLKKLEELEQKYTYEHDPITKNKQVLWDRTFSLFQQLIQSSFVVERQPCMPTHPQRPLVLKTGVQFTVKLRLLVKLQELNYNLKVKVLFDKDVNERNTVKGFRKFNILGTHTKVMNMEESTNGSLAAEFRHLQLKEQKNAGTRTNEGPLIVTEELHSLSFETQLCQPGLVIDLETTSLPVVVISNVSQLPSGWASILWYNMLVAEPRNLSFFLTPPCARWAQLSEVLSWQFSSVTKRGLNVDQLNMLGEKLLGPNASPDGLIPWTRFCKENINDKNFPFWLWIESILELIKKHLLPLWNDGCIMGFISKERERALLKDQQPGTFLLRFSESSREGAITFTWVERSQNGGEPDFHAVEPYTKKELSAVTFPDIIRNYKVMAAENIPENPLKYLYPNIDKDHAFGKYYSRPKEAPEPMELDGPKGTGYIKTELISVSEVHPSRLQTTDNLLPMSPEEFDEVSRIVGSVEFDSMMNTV
Test: pull-down

B1: GST-GFP fused with the C-terminal peptide of ORF6 wild type (49-61 amino acids) (domain or fragment)
chain: YSQLDEEQPMEID
B1: binds.
